This passage reports IC50, potency against Kv1.3 channels (patch clamp) and Selectivity (for Kv1.3 over Kv1.1, ratio of IC50s) results from patent publication US20170362286A1.

For the experiment, the target named is mKv1.3 (murine voltage-gated potassium channel Kv1.3) (mouse) (UniProt P16390). The experiment is described as follows: cell-based or functional assay.

No end group written: not given here.

mKv1.3 (murine voltage-gated potassium channel Kv1.3) (mouse), sequence (P16390 whole entry): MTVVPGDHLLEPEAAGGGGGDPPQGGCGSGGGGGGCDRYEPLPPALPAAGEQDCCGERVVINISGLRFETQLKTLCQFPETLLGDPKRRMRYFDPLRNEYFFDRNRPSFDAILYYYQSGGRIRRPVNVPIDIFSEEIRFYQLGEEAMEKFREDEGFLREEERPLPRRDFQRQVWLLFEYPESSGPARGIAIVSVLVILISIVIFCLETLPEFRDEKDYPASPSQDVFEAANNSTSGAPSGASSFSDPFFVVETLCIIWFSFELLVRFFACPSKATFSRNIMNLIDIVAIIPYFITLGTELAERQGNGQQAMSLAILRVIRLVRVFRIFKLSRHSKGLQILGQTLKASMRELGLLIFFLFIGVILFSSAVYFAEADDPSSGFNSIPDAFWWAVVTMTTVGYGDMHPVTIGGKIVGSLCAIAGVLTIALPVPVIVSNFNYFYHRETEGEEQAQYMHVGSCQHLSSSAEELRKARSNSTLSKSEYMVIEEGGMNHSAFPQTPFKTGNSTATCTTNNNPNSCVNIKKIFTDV

B1: [EWSS]ShK (peptide)
peptide: EWSSRSCIDTIPKSRCTAFQCKHSMKYRLSFCRKTCGTC
modifications: not fully specified; ends and bridges not checked
Regarding B1, the IC50, potency against Kv1.3 channels (patch clamp) turned out to be 0.033 nM and the Selectivity (for Kv1.3 over Kv1.1, ratio of IC50s) is 158 fold.
